According to the supplement of paper PMC9170038:

System: MS2 coat protein
Experiment: apparent KD of MS2 coat protein; designed switch direction (-1 OFF switch, 1 ON switch): -1; higher = weaker reporter binding
Outline: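 The reported apparent KD is a per-design median over clusters, from curve fits of normalised cluster fluorescence. Protein titrations used SNAP-549-labelled MS2 coat protein, doubled from 0.7 or 1.5 nM to 3 µM, in Tris-HCl pH 7.5 buffer with KCl, MgCl2, BSA, DTT, tRNA and Tween-20, with no input, 200 uM small-molecule ligand, or an oligonucleotide input. The RNA switches were transcribed on Illumina chips by stalled E. coli RNA polymerase.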

[1] = input ligand: microRNA oligo, concentration not stated
[2] = Eterna round: R95, input ligand: FMN 200 uM
[3] = Eterna round: R95, input ligand: microRNA oligo, concentration not stated
[4] = Eterna round: R95, input ligand: none

| Sequence | apparent KD of MS2 coat protein [1] [nM] | apparent KD of MS2 coat protein [2] [nM] | apparent KD of MS2 coat protein [3] [nM] | apparent KD of MS2 coat protein [4] [nM] | apparent KD of MS2 coat protein (input ligand: FMN 200 uM) [nM] | apparent KD of MS2 coat protein (input ligand: none) [nM] |
| --- | --- | --- | --- | --- | --- | --- |
| AAUUAUUGAUGAGGAUAUUGUGGUGAAACACGACAAGAAGGCAUUAUUCACAUGAGGAUCACCCAUGUGAGCCUGGUGCAUAUA [Ex NG1 #61] (Eterna round: R96, puzzle: Exclusion NG 1) | 11.6 | – | – | – | – | – |
| GCCAGAGCAGGAUAUCUAAUGUAUCACAUGAGGAUCACCCAUGUCCAGCGAAAGCUGGAGGGAGAAGGGCUCUGGC [Fiskers Ex 5 - 20] (puzzle: Exclusion 5) | – | 49.9 | 105 | 106 | – | – |
| AAGUACCGUCACGAUAGUGAUGGUACAACAAGCAGUGAAACAUGAGGAUCACCCAUGUCCUCAGUUGCUCGUCUUAU [Sensor 3 - 79] (puzzle: Sensor v3, turn-off variant 2) | – | 196 | 492 | 195 | – | – |
| UUUAGUUCAGGAUAUGUAGACAUUAACAUGAGGAUCACCCAUGUAGAUCCUGAAUUAACUACAGAAGGGAGCAUUU [Mod of Brourd 8 - Jieux - Exclusion 5] (Eterna round: R97, puzzle: Exclusion 5) | – | – | – | – | 19.3 | 15.3 |
| AUGAGAGCAGGAUAUGCAGGUGUGCCGGAAGAAAGAAGAAGACAUGAGGAUCACCCAUGUAGAAGGGCUAGCCC [Bibidi] (Eterna round: R96, puzzle: Exclusion 2) | 15.2 | – | – | – | – | – |
| GCCGAAAAUGUGAGGAUAUACCUAUGGAUACAUAGGUAGAAGGCACAUGAGGAUCACCCAUGUGUCCAAACGGC [Eli bmx4 4.22] (Eterna round: R97, puzzle: Brourd's mod of Exclusion 4) | – | – | – | – | 58.2 | 14.5 |
| AAGUACCGUCACGAUAGUGAUGGUACAACAUGUAGUGAAACAUGAGGAUCACCCAUGUCCUCAAUUGCUCGUCUUAU [Sensor 3 - 83] (puzzle: Sensor v3, turn-off variant 2) | – | 1400 | 460 | 1260 | – | – |
| GGAUAAAACUGAGGAUAUGCGGAGAGAGAGAGAGCAGAAGGCAGACAUGAGGAUCACCCAUGUGAGUUCUCGAUAAGAAACACG [Prohibition 57 - Jieux - Exclusion NG 1] (Eterna round: R96, puzzle: Exclusion NG 1) | 24 | – | – | – | 107 | 31.8 |
| AGAUAUUCGGUAGGAUAUCAGAAAGGAAGUGUAUGAGAAGGACCGAGCCGGAAACCGGUACAUGAGGAUCACCCAUGUGGUCCA [PowerStrip EXNG 1.23] (Eterna round: R96, puzzle: Exclusion NG 1) | 14 | – | – | – | 20.4 | 16.4 |
| GGUUGGCGAGGAUAUACAUGAGGAUCACCCAUGUGACAGAAAAAAGUGAGGAAGAAAAGUAGAAGGCGCUGACG [salish99_ex3_r3_019] (puzzle: Exclusion 3) | – | 587 | 44.9 | 37.1 | – | – |
| GCUGGAAGAGGAUAUACAUAACGUGCGUCAGCACGAGGCCUACAUGAGGAUCACCCAUGUAGAAGGCUUCCAGC [EX2 #77] (Eterna round: R97, puzzle: Exclusion 2) | – | – | – | – | 27.9 | 15.5 |
| UAAAGUAUAUAGGAUAUCUAGCUGGUAACAGCUAGAGAAGGAUGUACAUGAGGAUCACCCAUGUAAAUCAGUGA [Ex6/14-A2] (Eterna round: R97, puzzle: Exclusion 6) | – | – | – | – | 23.3 | 17.9 |
| CCGGAAGUACAGGAUAUCGUAACGGAGACGUUACGAGAAGGGUAUACAUGAGGAUCACCCAUGUGUCCUACCGG [Mat - Exclusion 6 - Eli Mod - D94] (puzzle: Exclusion 6) | – | 33.8 | 22 | 32.2 | – | – |
| UUGUUAUAUGUAGGAUAUGCGUGUUAUUGUUAGGCAGAAGGACAUGAGGAUCACCCAUGUAUGUUGUUGUUAUAUAUUAUAUAU [Title] (Eterna round: R96, puzzle: Exclusion NG 1) | 21.2 | – | – | – | 41.9 | 34.4 |
